Test results as given in article PMC4267655, “Brr2p carboxy-terminal Sec63 domain modulates Prp16 splicing RNA helicase” (Nucleic Acids Research, 2014).
Residue numbers refer to the chain shown, from its start. Numbers in names are those of the source.

B1: recombinant Brr2 Sec63-2p (domain or fragment, budding yeast, UniProt P32639 1846-2160, looked up)
chain: TLSNGLIASHYGVSFFTIQSFVSSLSNTSTLKNMLYVLSTAVEFESVPLRKGDRALLVKLSKRLPLRFPEHTSSGSVSFKVFLLLQAYFSRLELPVDFQNDLKDILEKVVPLINVVVDILSANGYLNATTAMDLAQMLIQGVWDVDNPLRQIPHFNNKILEKCKEINVETVYDIMALEDEERDEILTLTDSQLAQVAAFVNNYPNVELTYSLNNSDSLISGVKQKITIQLTRDVEPENLQVTSEKYPFDKLESWWLVLGEVSKKELYAIKKVTLNKETQQYELEFDTPTSGKHNLTIWCVCDSYLDADKELSFEI
notes: Brr2p, budding yeast, carboxy-terminal Sec63-2 domain; detected with anti-His-HRP antibodies; also called WT Sec63-2p; Brr2 Sec63-2p domain; source: E. coli BL21 RIL, purified (Hi-Trap IMAC HP charged with Ni)
B2: recombinant Brr2 Sec63-2 R1899Gp (domain or fragment, budding yeast, UniProt P32639 1846-2160, looked up)
chain: B1 chain with R54G
notes: Brr2p, budding yeast, carboxy-terminal Sec63-2 domain; also called Sec63-2 R1899G mutant protein; Brr2-R1899G mutant protein; source: E. coli BL21 RIL, purified (Hi-Trap IMAC HP charged with Ni)
B3: m21; m1 Prp16p:R456K; Prp16p:G691R; Brr2 H2-Sec63-2:R1899G (protein)
chain: MGHSGREERIKDIFKELTSKELTPGLLLTLQKLAQKPNTNLEQFIASCKALTKLSSNNPIIFNELLELLKNKSEEDSTGPKKIAPSINKRKKFKIQLDLDDNEDELDSPVQKKPAPTRTLFKRIDKLKAKQLRQYSPTVKDPSPNSEQQTQNGHAETKDYEPTRSEVVEEDREWYDNDDDYGNLVPEPLSELPEEAKLLPVIRNIDNDDALRNTVQLYPIPLKQRMEWIPPFLSKFALENKVPTSIIIGSISETSSQVSALSMVNPFRNPDSEFSANAKRGSKLVALRRINMEHIQQSRDNTTVLNTAMGEVLGLENNNKAKDKSNQKICDDTALFTPSKDDIKHTKEQLPVFRCRSQLLSLIRENQVVVIIGETGSGKTTQLAQYLYEEGYANDRGKSIVVTQPRRVAAISVAKRVAMEMQVPLGKEVGYSIRFEDVTDSECTKLKFVTDGILLKETLLDDTLDKYSCVIIDEAHERSLNTDILLGFFKILLARRRDLKLIITSATMNAKKFSAFFGNAPQFTIPGRTFPVQTIYTSNPVQDYVEAAVSQAVKIHLANDCSSGDILIFMTGQEDIETTFDTLQEKFLQVYSKKFGTANFEEINDIEILPIYSALPADLQFKIFQDLHGTKRKIIIATNIAETSLTIKGIRYVIDCGYSKLKVYNPKIGLDSLVITPISKANADQRSGRARRTAPGTAYRLYTEDTFKEDMYLQTIPEIQRTNLSNTLLLLKSLDVTDELSKFPFIDKPPLQTFLSSLYELWFIGAIDTSGQLTPLGLQMAKFPLQPSLSKILLIAVRNGCSDEMLTIVSMLSVPQVFYRPKERQKEADIARNKFFIAKSDHLTLLNVFEQWRANNFSSHWCNKHFVQYKSLVRARDIRDQLLTILKSQKIPVISSGKDWDIIKKCICSGFAHQAAKITGLRNYVHLKTGVSVQLHPTSALHGLGDLPPYVVYHELLMTSKEYICCVTSVDPFWLMEYGGLLYDIKRIKNDQEATTTGLFGEHYEHTLDKVEDDIDINIRRCKDMRDSVIQELKMTDNSNKEDKKQKTKKQNILNGKENSMKPFKRRKPFF
B4: m21; m1 Prp16p:Q685H; Brr2 H2-Sec63-2:R1899G (protein)
chain: B3 chain with K456R, Q685H, R691G
B5: m21; m1 Prp16p:R686Q; Brr2 H2-Sec63-2:R1899G (protein)
chain: B3 chain with K456R, R686Q, R691G
B6: m21; m1 Prp16p:R456K; Prp16p:G691R; Brr2 H2-Sec63-2:L1951P (protein)
chain: B3 chain
B7: m21; m1 Prp16p:D473E; Brr2 H2-Sec63-2:R1899G (protein)
chain: B3 chain with K456R, D473E, R691G
B8: m21; m1 Prp16p:R686Q; Brr2 H2-Sec63-2:L1951P (protein)
chain: B3 chain with K456R, R686Q, R691G
B9: m21; m1 Prp16p:R686I; Brr2 H2-Sec63-2:R1899G (protein)
chain: B3 chain with K456R, R686I, R691G
B10: m21; m1 Prp16p:R686I; Brr2 H2-Sec63-2:L1951P (protein)
chain: B3 chain with K456R, R686I, R691G
B11: m21; m1 Prp16p:D473E; Brr2 H2-Sec63-2:L1951P (protein)
chain: B3 chain with K456R, D473E, R691G
B12: m21; m1 Prp16p:Q685H; Brr2 H2-Sec63-2:L1951P (protein)
chain: B3 chain with K456R, Q685H, R691G
B13: Prp16p (Saccharomyces cerevisiae S288C) (protein)
chain: B3 chain with K456R, R691G
notes: recombinant from E. coli BL21 RIL, NiNTA purified (His-tagged)
B14: 44-nt ssRNA (ssRNA)
RNA: GGGCGAAUUCAAAACAAAACAAAACUAGCACCGUAAAGCAAGCU

Legend:
Ded1p = target: T1, Ded1p (Saccharomyces cerevisiae, UniProt P06634); test: ATPase assay, released Pi; type: biochemical; conditions: 5 nM enzyme, 1 mM ATP, 50 ng/μl total yeast RNA, 20 mM Tris-HCl pH 7.5, 50 mM KAc, 1 mM MgOAc, 30°C
T1 construct: gene DED1; recombinant from E. coli BL21 RIL, purified as previously described

Prp22p = target: T2, Prp22p (Saccharomyces cerevisiae, UniProt P24384); test: ATPase assay, released Pi; type: biochemical; conditions: 1 mM ATP, 50 ng/μl total yeast RNA, 20 mM Tris-HCl pH 7.5, 75 mM KCl, 1 mM MgSO4, 30°C
T2 construct: gene PRP22; recombinant from E. coli BL21 RIL, purified as previously described
T2 sequence (P24384 1-1145): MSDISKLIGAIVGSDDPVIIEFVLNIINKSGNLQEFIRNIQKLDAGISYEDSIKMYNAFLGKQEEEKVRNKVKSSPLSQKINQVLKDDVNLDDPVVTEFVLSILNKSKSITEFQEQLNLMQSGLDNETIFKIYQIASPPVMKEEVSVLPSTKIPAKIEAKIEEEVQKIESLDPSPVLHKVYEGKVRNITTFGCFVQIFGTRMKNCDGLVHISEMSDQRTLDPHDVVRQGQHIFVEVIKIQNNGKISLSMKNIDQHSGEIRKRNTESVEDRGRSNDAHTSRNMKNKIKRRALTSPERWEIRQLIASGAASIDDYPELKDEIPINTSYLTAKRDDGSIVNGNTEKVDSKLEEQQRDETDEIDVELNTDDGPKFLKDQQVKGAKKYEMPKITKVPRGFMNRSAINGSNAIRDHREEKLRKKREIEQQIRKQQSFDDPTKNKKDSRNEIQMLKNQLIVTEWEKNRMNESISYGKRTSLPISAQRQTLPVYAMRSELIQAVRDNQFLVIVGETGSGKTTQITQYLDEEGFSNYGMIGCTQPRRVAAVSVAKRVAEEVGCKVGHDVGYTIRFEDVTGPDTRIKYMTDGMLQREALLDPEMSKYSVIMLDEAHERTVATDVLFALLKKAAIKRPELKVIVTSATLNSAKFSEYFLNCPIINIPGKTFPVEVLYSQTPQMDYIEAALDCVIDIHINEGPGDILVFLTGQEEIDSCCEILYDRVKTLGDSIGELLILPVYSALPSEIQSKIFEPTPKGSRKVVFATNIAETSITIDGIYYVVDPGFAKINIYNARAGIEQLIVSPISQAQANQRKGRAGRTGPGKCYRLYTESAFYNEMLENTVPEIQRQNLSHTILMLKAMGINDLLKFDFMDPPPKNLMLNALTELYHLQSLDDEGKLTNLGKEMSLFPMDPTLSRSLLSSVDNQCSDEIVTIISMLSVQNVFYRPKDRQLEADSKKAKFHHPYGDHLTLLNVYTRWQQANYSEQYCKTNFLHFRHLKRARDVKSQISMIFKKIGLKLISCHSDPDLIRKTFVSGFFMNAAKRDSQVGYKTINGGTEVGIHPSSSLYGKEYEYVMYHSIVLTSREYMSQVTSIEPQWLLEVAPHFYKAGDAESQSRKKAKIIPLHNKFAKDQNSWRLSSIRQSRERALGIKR

[1] = target: T3, recombinant Prp16p (wild type) (budding yeast, UniProt P15938 1-1071); test: native gel or EMSA; apparent; Prp16p (300 nM) with 2-nM 32P-labelled 44-nt ssRNA and increasing amounts of Sec63-2p or Sec63-2 R1899Gp; loss of the Prp16p-RNA complex; buffer of the Prp16p ATPase assay without ATP; conditions: both partners purified
T3 construct: Prp16p, budding yeast; also called WT Prp16p; source: E. coli BL21 RIL, purified (NiNTA-agarose)
T3 sequence (looked up): B3 chain with K456R, R691G

[2] = target: T3, recombinant Prp16p (wild type); test: cell-based or functional assay
[3] = target: Brr2 H2-Sec63-2p R1899G, Gal4AD-prey fusion, P32639; test: Y2H interaction assay; conditions: chain shown with the change; growth on -LWH medium with 3-AT; parent: 50.0
[4] = target: Brr2 H2-Sec63-2p L1951P, Gal4AD-prey fusion, P32639; test: Y2H interaction assay; conditions: chain shown with the change; growth on -LWH medium with 3-AT; parent: 50.0
[5] = substrate: Nc1ncnc2c1ncn2[C@@H]1O[C@H](COP(=O)(O)OP(=O)(O)OP(=O)(O)O)[C@@H](O)[C@H]1O; test: ATPase assay, released Pi; type: biochemical, Saccharomyces cerevisiae; conditions: 10 nM enzyme, 50 ng/μl total yeast RNA, no Sec63-2p, 20 mM Tris-HCl pH 7.5, 75 mM KCl, 1 mM MgSO4, 30°C
From the text: ATPase assay, released Pi on Prp16p

Prp16p = target: T4, Prp16p (UniProt P15938 1-1071); test: EMSA; no ATP; 2 nM RNA; EMSA in the Prp16p ATPase assay buffer without ATP (composition, pH and temperature not in the material), 2 nM 5' 32P-labeled RNA; conditions: protein: recombinant; tags: His (pET22b-PRP16-His); label: 5' 32P; single stranded
T4 sequence: B3 chain with K456R, R691G

Sequence of Brr2 H2-Sec63-2p R1899G, Gal4AD-prey fusion, P32639 (P32639 whole entry R1899G, the tested form may be a part): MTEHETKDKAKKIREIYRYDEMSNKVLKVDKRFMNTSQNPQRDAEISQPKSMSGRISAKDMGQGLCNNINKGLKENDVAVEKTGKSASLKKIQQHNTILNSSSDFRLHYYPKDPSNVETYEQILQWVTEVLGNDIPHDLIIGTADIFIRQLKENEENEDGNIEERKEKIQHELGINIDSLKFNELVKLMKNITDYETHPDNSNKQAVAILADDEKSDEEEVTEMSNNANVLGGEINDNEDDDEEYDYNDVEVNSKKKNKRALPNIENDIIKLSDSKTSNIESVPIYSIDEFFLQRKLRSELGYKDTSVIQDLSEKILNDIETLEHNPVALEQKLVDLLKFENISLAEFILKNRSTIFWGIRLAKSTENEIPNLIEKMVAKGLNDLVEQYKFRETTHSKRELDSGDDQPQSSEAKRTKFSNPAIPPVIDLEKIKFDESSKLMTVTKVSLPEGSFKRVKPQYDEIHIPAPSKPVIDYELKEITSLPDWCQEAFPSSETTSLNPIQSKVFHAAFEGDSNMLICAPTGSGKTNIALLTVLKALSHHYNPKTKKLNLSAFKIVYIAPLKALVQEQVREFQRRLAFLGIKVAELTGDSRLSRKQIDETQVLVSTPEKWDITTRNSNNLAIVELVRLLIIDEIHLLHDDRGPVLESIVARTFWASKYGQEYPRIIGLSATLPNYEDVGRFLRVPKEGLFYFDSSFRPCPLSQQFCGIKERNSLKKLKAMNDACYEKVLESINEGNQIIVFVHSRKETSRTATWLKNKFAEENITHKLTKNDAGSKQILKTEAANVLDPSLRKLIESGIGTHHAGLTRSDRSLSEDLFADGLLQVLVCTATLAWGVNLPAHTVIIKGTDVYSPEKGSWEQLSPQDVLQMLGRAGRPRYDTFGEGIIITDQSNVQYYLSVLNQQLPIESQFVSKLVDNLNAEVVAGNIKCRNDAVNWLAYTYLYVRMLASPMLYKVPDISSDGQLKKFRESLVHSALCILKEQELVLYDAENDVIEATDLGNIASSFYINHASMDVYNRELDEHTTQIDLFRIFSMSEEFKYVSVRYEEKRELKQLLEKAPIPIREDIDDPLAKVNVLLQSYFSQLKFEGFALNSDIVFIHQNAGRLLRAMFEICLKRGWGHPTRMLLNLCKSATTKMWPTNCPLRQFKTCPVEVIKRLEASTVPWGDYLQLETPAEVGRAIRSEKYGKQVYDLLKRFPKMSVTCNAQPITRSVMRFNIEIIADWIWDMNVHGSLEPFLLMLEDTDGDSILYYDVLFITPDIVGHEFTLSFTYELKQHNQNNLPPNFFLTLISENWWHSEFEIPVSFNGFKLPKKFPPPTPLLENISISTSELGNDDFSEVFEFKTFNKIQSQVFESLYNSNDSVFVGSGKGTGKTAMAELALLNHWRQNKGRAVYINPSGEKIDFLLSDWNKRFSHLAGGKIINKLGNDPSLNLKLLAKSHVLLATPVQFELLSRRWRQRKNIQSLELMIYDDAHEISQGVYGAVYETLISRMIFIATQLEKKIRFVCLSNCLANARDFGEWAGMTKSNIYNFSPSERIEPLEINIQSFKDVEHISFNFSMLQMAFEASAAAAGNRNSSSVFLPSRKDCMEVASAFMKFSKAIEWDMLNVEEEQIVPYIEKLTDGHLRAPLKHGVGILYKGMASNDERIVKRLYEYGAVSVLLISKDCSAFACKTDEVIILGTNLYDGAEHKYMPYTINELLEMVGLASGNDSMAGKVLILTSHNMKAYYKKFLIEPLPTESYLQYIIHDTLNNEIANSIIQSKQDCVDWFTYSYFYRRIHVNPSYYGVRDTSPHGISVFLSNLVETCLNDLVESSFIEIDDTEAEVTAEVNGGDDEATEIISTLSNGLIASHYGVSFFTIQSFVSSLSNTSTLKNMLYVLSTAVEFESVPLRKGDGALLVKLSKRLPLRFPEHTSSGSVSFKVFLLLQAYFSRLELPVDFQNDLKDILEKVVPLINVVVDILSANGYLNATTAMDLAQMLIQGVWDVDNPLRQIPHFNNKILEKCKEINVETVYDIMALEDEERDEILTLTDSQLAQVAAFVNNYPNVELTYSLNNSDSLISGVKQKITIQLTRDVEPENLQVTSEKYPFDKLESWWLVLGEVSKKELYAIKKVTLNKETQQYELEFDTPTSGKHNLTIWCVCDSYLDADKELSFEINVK
Sequence of Brr2 H2-Sec63-2p L1951P, Gal4AD-prey fusion, P32639 (P32639 whole entry L1951P, the tested form may be a part): as the sequence (P32639 whole entry R1899G, the tested form may be a part) above, with G1899R, L1951P counted along it
T1 sequence (P06634 2-604): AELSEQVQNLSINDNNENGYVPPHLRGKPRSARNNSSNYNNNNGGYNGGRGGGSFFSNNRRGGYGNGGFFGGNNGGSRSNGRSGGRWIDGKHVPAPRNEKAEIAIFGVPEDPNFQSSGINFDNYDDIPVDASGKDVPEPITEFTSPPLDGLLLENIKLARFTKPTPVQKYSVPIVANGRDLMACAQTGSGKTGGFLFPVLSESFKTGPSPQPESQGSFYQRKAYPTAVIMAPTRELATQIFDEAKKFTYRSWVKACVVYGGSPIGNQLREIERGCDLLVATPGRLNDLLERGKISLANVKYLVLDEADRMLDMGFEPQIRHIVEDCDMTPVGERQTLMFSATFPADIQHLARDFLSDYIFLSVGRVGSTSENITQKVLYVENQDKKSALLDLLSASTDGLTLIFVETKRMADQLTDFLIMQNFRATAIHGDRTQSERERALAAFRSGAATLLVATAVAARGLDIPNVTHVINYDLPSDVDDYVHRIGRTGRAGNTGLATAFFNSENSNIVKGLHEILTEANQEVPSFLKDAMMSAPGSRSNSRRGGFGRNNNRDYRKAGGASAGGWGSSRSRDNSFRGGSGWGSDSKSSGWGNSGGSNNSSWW

Row | Molecule | other: maximal [3AT] tolerated [3] [mM] | other: maximal [3AT] tolerated [4] [µM] | other results
1 | Nc1ncnc2c1ncn2[C@@H]1O[C@H](COP(=O)(O)OP(=O)(O)OP(=O)(O)O)[C@@H](O)[C@H]1O [ATP] | – | – | ATPase assay, released Pi (Ded1p): no effect of Sec63-2p on the ATPase activities of Ded1p; ATPase assay, released Pi (Prp22p): no effect of Sec63-2p on the ATPase activities of Ded1p
2 | B1 | – | – | Kd (dissociation constant) [1]: 479 ± 2 nM; ATPase activity of Prp16p (10 nM) in vitro with increasing molar excess of Sec63-2p, in presence of 50-ng/μl total yeast RNA [2]: 2 fold
3 | B2 | – | – | Kd (dissociation constant) [1]: 3097 ± 3 nM
4 | B3 | 0 | – | –
5 | B4 | 100 | – | –
6 | B5 | 50 | – | –
7 | B6 | – | 0 | –
8 | B7 | 10 | – | –
9 | B8 | – | 200 | –
10 | B9 | 75 | – | –
11 | B10 | – | 200 | –
12 | B11 | – | 0 | –
13 | B12 | – | 0 | –
14 | B13 | – | – | Km [5]: 751 ± 181 µM; kcat [5]: 3.05 ± 0.683 s⁻¹
15 | B14 | – | – | binding result (Prp16p): binds
